Consider four molecules from paper PMC7527728, “CPSF6-Dependent Targeting of Speckle-Associated Domains Distinguishes Primate from Nonprimate Lentiviral Integration” (mBio, 2020).

Primed or numbered codes have the meaning given here. Ends that are not written are not given here. FITC′ = fluorescein isothiocyanate label; Ahx = NCCCCCC(=O)O

Test in all cases: fluorescence polarisation; 150 nM FITC-Ahx-labelled peptide mixed with increasing capsid NTD protein (2 μM to 2 mM) in 50 mM Tris-HCl pH 8.0, 50 mM NaCl, 384-well plates; one-site specific binding model; the EIAV constants are called apparent
What all share (settings): both partners purified
On the technique in general: Fluorescence polarisation rises when a labelled molecule tumbles more slowly, as on binding a larger partner.

Assay [1] deals with T1, CPSF6_(276–290/F284A) peptide (human, F284A (stands in the printed letters)).
T1 construct: cleavage and polyadenylation specificity factor 6 (CPSF6), human, residues 276-290 counted on the 551-residue isoform CPSF6[551], with F284A; source: synthetic peptide (GenScript)

Assay [2] addresses T2, CPSF6_(276–290) peptide (human, N-terminal fluorescein isothiocyanate (FITC)-Ahx).
T2 construct: also called CPSF6 peptide; fluorescently labeled CPSF6_(276–290) peptide; source: synthetic peptide (GenScript)

Assay [3] has as its target T2, CPSF6_(276–290) peptide. This is another data set of the same source.

B1: EIAV capsid N-terminal domain (NTD) protein (domain or fragment)
chain: PIMIDGAGNRNFRPLTPRGYTTWVNTIQTNGLLNEASQNLFGILSVDCTSEEMNAFLDVVPGQAGQKQILLDAIDKIADDWDNRHPLPNAPLVAPPQGPIPMTARFIRGLGVPRERQMEPAFDQFRQTYRQWIIEAMSEGIKVMIG
Take B1: the Kd in assay [1] was found to be 466 µM.

B2: FIV capsid N-terminal domain (NTD) protein (domain or fragment)
chain: PIQTVNGVPQYVALDPKMVSIFMEKAREGLGGEEVQLWFTAFSANLTPTDMATLIMAAPGCAADKEILDESLKQLTAEYDRTHPPDAPRPLPYFTAAEIMGIGLTQEQQAEARFAPARMQCRAWYLEALGKLAAIKA
As for B2, the Kd with CPSF6_(276–290) peptide [2] was > 2000 µM; with CPSF6_(276–290) peptide [3], > 4000 µM; in assay [1] it was > 7000 µM.

B3: BIV capsid N-terminal domain (NTD) protein (domain or fragment)
chain: PAITTQDGTPRFDPDLMKQLKIWSDATERNGVDLHAVNILGVITANLVQEEIKLLLNSTPKWRLDVQLIESKVREKENAHRTWKQHHPEAPKTDEIIGKGLSSAEQATLISVECRETFRQWVLQAAMEVAQAKHATPG
As to B3, the Kd in the assay with CPSF6_(276–290) peptide [2] was > 2000 µM; in the assay with CPSF6_(276–290) peptide [3], > 5000 µM; in assay [1] it was > 3000 µM.

B4: MLV capsid N-terminal domain (NTD) protein (domain or fragment)
chain: PLRAGGNGQLQYWPFSSSDLYNWKNNNPSFSEDPGKLTALIESVLITHQPTWDDCQQLLGTLLTGEEKQRVLLEARKAVRGDDGRPTQLPNEVDAAFPLERPDWDYTTQAGRNHLVHYRQLLLAGLQNAGRS
Regarding B4, the Kd with CPSF6_(276–290) peptide [2] was > 2000 µM; with CPSF6_(276–290) peptide [3] it was > 5000 µM.
